For assay [1], the target named is T1, CD86 on cells (WIL2-S human B-lymphoblastoid cells; HuCD86-2A2 CHO cells expressing CD86) (human, UniProt P42081 24-329).
T1 construct: whole, on cells; also called cell surface CD86
T1 sequence (looked up): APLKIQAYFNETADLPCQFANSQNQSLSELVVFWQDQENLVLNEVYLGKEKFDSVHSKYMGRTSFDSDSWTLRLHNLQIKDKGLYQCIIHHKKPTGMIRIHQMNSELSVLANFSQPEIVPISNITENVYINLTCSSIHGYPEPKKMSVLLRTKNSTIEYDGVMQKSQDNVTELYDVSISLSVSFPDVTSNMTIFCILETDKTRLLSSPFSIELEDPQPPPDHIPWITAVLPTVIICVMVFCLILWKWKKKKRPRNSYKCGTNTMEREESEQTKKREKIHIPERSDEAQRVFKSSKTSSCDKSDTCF
Put plainly: flow cytometry, supernatants of transfected HEK293 cells on HuCD86-2A2 cells. As to the method:
Briefly, WIL2-S or HuCD86-2A2 cells were incubated with test molecules containing a CD86 antagonist at concentrations ranging from saturation to background levels. […] After the incubation, cells were washed and a fluorophore (R-phycoerythrin) tagged F(Ab′)₂ antibody specific for the Fc portion of the xceptor molecule, IL10R-Ig fusion protein, or anti-IL10 antibody. The tagged cells were then passed through a flow cytometer and data was analyzed by plotting median fluorescence intensity of each sample.
In another experiment, different versions of humanized FUN1 SMIPs were tested for CD86 binding. Supernatants of HEK293 cells transiently transfected with the six different versions of humanized FUN1 SMIPs were examined for CD86 binding using HuCD86-2A2 cells.

The target in assay [2] is T2, Murine CD86-mIgG (R&D Systems, Inc) (murine, UniProt P42082 24-244, limits assumed).
T2 construct: also called muCD86
T2 sequence (looked up): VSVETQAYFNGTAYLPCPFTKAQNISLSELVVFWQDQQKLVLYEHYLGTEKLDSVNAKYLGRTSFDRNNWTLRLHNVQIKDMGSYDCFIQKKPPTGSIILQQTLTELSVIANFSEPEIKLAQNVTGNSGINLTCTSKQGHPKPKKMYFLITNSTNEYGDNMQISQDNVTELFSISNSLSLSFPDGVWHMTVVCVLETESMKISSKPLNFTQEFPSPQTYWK
Put plainly: SPR (BIAcore T100), murine CD86-mIgG immobilized on CM5; bivalent analyte model, first site. On the procedure:
(§1) SPR measurements were performed on a BIAcore™ T100 SPR (Pharmacia Biotech AB, Uppsala) using HBS-EP+ (GE Healthcare) as a running buffer. Murine CD86-mIgG (25 μg/mL in 10 mM sodium acetate, pH 4.0, R&D Systems, Inc) was directly immobilized onto a CM5 chip using standard amine coupling chemistry (Biacore Amine Coupling Kit, GE Healthcare), with final immobilization levels of 150, 493, and 746 Ru. CTLA4-containing constructs were injected for 150 seconds, at a flow rate of 10 μl/min, in a series of concentrations from 4 nM to 8 μM. Dissociation was monitored for 600 seconds (CTLA4 constructs) or 1200 seconds (GL1 constructs), and the surface was regenerated by injecting 10 mM glycine, pH 1.7, for 60 seconds. […] Data were analyzed using BiaEvaluation for the T100 software (version 2.0.1, GE Healthcare).

Assay [3] has as its target T2, Murine CD86-mIgG (R&D Systems, Inc). Put plainly: SPR (BIAcore T100), murine CD86-mIgG immobilized on CM5; bivalent analyte model, second site. As to the method: as §1
For orientation: Surface plasmon resonance follows binding to a sensor surface in real time, without labels.

Assay [4] has the same target. Put plainly: SPR (BIAcore T100), murine CD86-mIgG immobilized on CM5; steady-state equilibrium fit. On the procedure: as §1

B1: FUN1-31 humanized FUN1 SMIP (Fc fusion)
chain: QVQLVESGGGLVKPGGSLRLSCAASGFTFSDYNMNWIRQAPGKGLEWVSNIDPYYGGTSYNQKFKGRFTISRDNAKNSLYLQMNSLRAEDTAVYYCARWDYRYDDGRAYYVMDFWGQGTTVTVSSGGGGSGGGGSGGGGSGGGGSDIVMTQSPDSLAVSLGERATINCKSSQSVLYSSNQKNYLAWYQQKPGQPPKLLIYWASTRESGVPDRFSGSGSGTDFTLTISSLQAEDVAVYYCHQYLYSWTFGQGTKLEIKRLEPKSSDKTHTCPPCPAPEAAGAPSVFLFPPKPKDTLMISRTPEVTCVVVDVSHEDPEVKFNWYVDGVEVHNAKTKPREEQYNSTYRVVSVLTVLHQDWLNGKAYACAVSNKALPAPIEKTISKAKGQPREPQVYTLPPSRDELTKNQVSLTCLVKGFYPSDIAVEWESNGQPENNYKTTPPVLDSDGSFFLYSKLTVDKSRWQQGNVFSCSVMHEALHNHYTQKSLSLSPG
Take B1: the binding result in assay [1] is recorded as “no binding”.

B2: FUN1-32 humanized FUN1 SMIP (Fc fusion)
chain: QVQLVESGGGLVKPGGSLRLSCAASGFTFSDYNMNWIRQAPGKGLEWVSNIDPYYGGTSYNQKFKGRFTISRDNAKNSLYLQMNSLRAEDTAVYYCARWDYRYDDGRAYYVMDFWGQGTTVTVSSGGGGSGGGGSGGGGSGGGGSDIQMTQSPSSLSASVGDRVTITCKSSQSVLYSSNQKNYLAWYQQKPGKVPKLLIYWASTRESGVPSRFSGSGSGTDFTLTISSLQPEDVATYYCHQYLYSWTFGQGTKLEIKRLEPKSSDKTHTCPPCPAPEAAGAPSVFLFPPKPKDTLMISRTPEVTCVVVDVSHEDPEVKFNWYVDGVEVHNAKTKPREEQYNSTYRVVSVLTVLHQDWLNGKAYACAVSNKALPAPIEKTISKAKGQPREPQVYTLPPSRDELTKNQVSLTCLVKGFYPSDIAVEWESNGQPENNYKTTPPVLDSDGSFFLYSKLTVDKSRWQQGNVFSCSVMHEALHNHYTQKSLSLSPG
notes: SMIP: scFv-hinge-Fc single chain
With B2, the binding result in assay [1] is on record as “no binding”.

B3: GL1::IL10 xceptor (Fc fusion)
chain: EVQLVESAGGLVQPGRSLKLSCAASGFTFSDYYMAWVRQAPTKGLEWVATISHDGSSTYYRDSVKGRFTISRDNAKTILYLQMDSLRSEDTATYFCARQNIMDYWGQGVMVTVSSGGGGSGGGGSGGGGSGGGGSDIVMTQTPSSQAVSAGEKVTMSCKSSQSLLYSRDQSNYLAWYQQKPGQSPKLLIYLASTRESGVPDRFIGSGSGTDFTLTISSVQAEDLADYYCQQHYNYPLTFGSGTKLEIKLEPKSSDKTHTCPPCPAPEAAGAPSVFLFPPKPKDTLMISRTPEVTCVVVDVSHEDPEVKFNWYVDGVEVHNAKTKPREEQYNSTYRVVSVLTVLHQDWLNGKAYACAVSNKALPAPIEKTISKAKGQPREPQVYTLPPSRDELTKNQVSLTCLVKGFYPSDIAVEWESNGQPENNYKTTPPVLDSDGSFFLYSKLTVDKSRWQQGNVFSCSVMHEALHNHYTQKSLSLSPGNSLFNQEVQIPLTESYSPNSSPGQGTQSENSCTHFPGNLPNMLRDLRDAFSRVKTFFQMKDQLDNLLLKESLLEDFKGYLGCQALSEMIQFYLEEVMPQAENQDPDIKAHVNSLGENLKTLRLRLRRCHRFLPCENKSKAVEQVKNAFNKLQEKGIYKAMSEFDIFINYIEAYMTMKIRN
By koff is commonly meant the rate constant with which the complex falls apart. Read a low koff as slow dissociation. What is called kon is a measure of how fast the partners come together. A low value points to slower complex formation. As a reminder, the Kd is the free concentration of one partner at which half of the binding sites on the other are occupied at equilibrium, for simple one-to-one binding. A lower Kd goes with a tighter complex. On to B3, for which, in assay [2], the koff amounted to 0.00019 s⁻¹ and the kon worked out at 219000 M⁻¹ s⁻¹. In addition, in assay [3], the “Second Site ka” value came out at 0.00943 s⁻¹ and the “Second Site kd” value is 0.0182 s⁻¹. In assay [4], this molecule gave a Kd of 86.4 nM.

B4: IL10::GL1 xceptor (Fc fusion)
chain: SPGQGTQSENSCTHFPGNLPNMLRDLRDAFSRVKTFFQMKDQLDNLLLKESLLEDFKGYLGCQALSEMIQFYLEEVMPQAENQDPDIKAHVNSLGENLKTLRLRLRRCHRFLPCENKSKAVEQVKNAFNKLQEKGIYKAMSEFDIFINYIEAYITMKIRNLEPKSSDKTHTCPPCPAPEAAGAPSVFLFPPKPKDTLMISRTPEVTCVVVDVSHEDPEVKFNWYVDGVEVHNAKTKPREEQYNSTYRVVSVLTVLHQDWLNGKAYACAVSNKALPAPIEKTISKAKGQPREPQVYTLPPSRDELTKNQVSLTCLVKGFYPSDIAVEWESNGQPENNYKTTPPVLDSDGSFFLYSKLTVDKSRWQQGNVFSCSVMHEALHNHYTQKSLSLSPGNSLFNQEVQIPLTESYSPNSEVQLVESAGGLVQPGRSLKLSCAASGFTFSDYYMAWVRQAPTKGLEWVATISHDGSSTYYRDSVKGRFTISRDNAKTILYLQMDSLRSEDTATYFCARQNIMDYWGQGVMVTVSSGGGGSGGGGSGGGGSGGGGSDIVMTQTPSSQAVSAGEKVTMSCKSSQSLLYSRDQSNYLAWYQQKPGQSPKLLIYLASTRESGVPDRFIGSGSGTDFTLTISSVQAEDLADYYCQQHYNYPLTFGSGTKLEIK
In assay [2], B4 displayed a koff of 4.4e-05 s⁻¹ and a kon of 67300 M⁻¹ s⁻¹. Also, in assay [3], the “Second Site ka” value stood at 0.0271 s⁻¹ and the “Second Site kd” value was 0.088 s⁻¹. In assay [4], the Kd came to 95.1 nM.

B5: FUN1-12 humanized FUN1 SMIP (Fc fusion)
chain: EVQLVQSGAEVKKPGATVKISCKVSGYTFTDYNMNWVQQAPGKGLEWMGNIDPYYGGTSYNQKFKGRVTITADTSTDTAYMELSSLRSEDTAVYYCATWDYRYDDGRAYYVMDFWGQGTTVTVSSGGGGSGGGGSGGGGSGGGGSDIQMTQSPSSLSASVGDRVTITCKSSQSVLYSSNQKNYLAWYQQKPGKVPKLLIYWASTRESGVPSRFSGSGSGTDFTLTISSLQPEDVATYYCHQYLYSWTFGQGTKLEIKRLEPKSSDKTHTCPPCPAPEAAGAPSVFLFPPKPKDTLMISRTPEVTCVVVDVSHEDPEVKFNWYVDGVEVHNAKTKPREEQYNSTYRVVSVLTVLHQDWLNGKAYACAVSNKALPAPIEKTISKAKGQPREPQVYTLPPSRDELTKNQVSLTCLVKGFYPSDIAVEWESNGQPENNYKTTPPVLDSDGSFFLYSKLTVDKSRWQQGNVFSCSVMHEALHNHYTQKSLSLSPG
In the case of B5, the binding result in assay [1] is recorded as “no binding”.
